We go through one molecule from US8609413B2, “Neurons, astrocytes and oligodendrocytes differentiated from a mammalian pluripotent or neural stem cells exposed to a pyridine deriviative” (Research Development Foundation, priority 2007, dated 2013).

The assay deals with human ESC-derived NPC / ESC aggregates. Kind of assay: Air/liquid interface three-dimensional culture with added factors. In kind it is cell-based. To be noted: exogenously added factor. An excerpt:
Air/liquid interface expansion/differentiation of NPC may be performed via the following protocol. One or more rosettes-enriched clusters may be manually removed and multiple clusters (e.g., about 5-10 clusters) may be plated on a hydrophilic polytetrafluoroethylene (PTFE) membrane (e.g., 6 mm diameter, 0.4 μm, BioCell-Interface, La Chaux-de-Fonds, Switzerland). This membrane may be deposited on a Millicell®-CM (0.4 μm) Culture Plate Insert (Millipore) (FIG. 5A). N2 medium may preferably be added (e.g., about 1 ml) underneath the membrane insert.
Air/liquid interface expansion/differentiation of NPC. Rosettes-enriched cluster were manually removed and 5-10 clusters were plated on a hydrophilic polytetrafluoroethylene (PTFE) membrane (6 mm diameter, 0.4 μm, BioCell-Interface, La Chaux-de-Fonds, Switzerland). This membrane was deposited on a Millicell®-CM (0.4 μm) Culture Plate Insert (Millipore) (FIG. 1). One ml of N2 medium was added underneath the membrane insert.

B1: Noggin: a polypeptide playing a key role in neural induction (protein, UniProt Q13253 28-232, looked up)
Noggin: QHYLHIRPAPSDNLPLVDLIEHPDPIFDPKEKDLNETLLRSLLGGHYDPGFMATSPPEDRPGGGGGAAGGAEDLAELDQLLRQRPSGAMPSEIKGLEFSEGLAQGKKQRLSKKLRRKLQMWLWSQTFCPVLYAWNDLGSRFWPRYVKVGSCFSKRSCSVPEGMVCKPSKSVHLTVLRWRCQRRGGQRCGWIPIQYPIISECKCSC
Consider B1, for which the “phenotype of engineered tissue” value was “had no influence on the self-organization and phenotype”.
